# Reference: publication doi:10.1101/830265
# Read-outs that look alike come from different tables or passages of the source.
# B1: puroindoline A (natural protein)
# chain: DVAGGGGAQQCPVETKLNSCRNYLLDRCSTMKDFPVTWRWWKWWKGGCQELLGECCSRLGQMPPQCRCNIIQGSIQGDLGGIFGFQRDRASKVIQEAKNLPPRCNQGPPCNIPGTIGYYW
# Assays:
# [1] = target: total gliadin fraction (Triticum aestivum); assay: turbidimetry
# [2] = target: total gliadin fraction (Triticum aestivum); assay: turbidimetry; remark: listed apart in the source
# [3] = target: total gliadin fraction (Triticum aestivum); assay: turbidimetry; remark: listed apart in the source
# [4] = target: α-gliadin (Triticum aestivum); assay: SPR
# [5] = target: γ-gliadin (Triticum aestivum) (UniProt P08453); assay: SPR
# Chain of γ-gliadin (Triticum aestivum) (P08453 20-327): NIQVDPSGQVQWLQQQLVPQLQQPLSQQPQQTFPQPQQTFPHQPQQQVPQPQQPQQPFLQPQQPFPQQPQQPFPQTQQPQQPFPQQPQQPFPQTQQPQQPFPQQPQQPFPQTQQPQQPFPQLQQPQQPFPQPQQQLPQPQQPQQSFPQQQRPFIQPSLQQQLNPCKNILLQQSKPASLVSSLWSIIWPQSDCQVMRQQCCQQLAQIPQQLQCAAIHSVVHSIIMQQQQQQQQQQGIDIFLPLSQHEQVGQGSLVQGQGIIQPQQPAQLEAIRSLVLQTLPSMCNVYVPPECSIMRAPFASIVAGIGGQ
binder,measurement,setting,value
B1,Kd,[1],400 nM
same,Kd,[2],600 nM
same,Kd,[3],1000 nM
same,Kd,[4],4.45 µM
same,response at equilibrium at 2.5 µM PINA,[4],160 RU
same,Kd,[5],630 nM
same,response at equilibrium at 2.5 µM PINA,[5],34 RU
